Assay [1] deals with HLA-A*1101 (human). The experiment in a line: inhibition of radiolabeled probe peptide binding to purified HLA, gel filtration. The following applies: remark: other sources report otherwise. On the technique in general: SEC sorts molecules by how far they enter the pores of the column.
The target of assay [2] is HLA-A*0206 (human). The experiment in a line: competition with 125I probe peptide, purified HLA class I. The settings on record: remark: other sources report otherwise.
Assay [3] addresses HLA-A*0203 (human). The assay is described as above. The settings on record: remark: other sources report otherwise.
Assay [4] has as its target HLA-A*6801 (human). The description is as above. The settings on record: remark: other sources report otherwise.
Assay [5] concerns the target HLA-A*1101 (human). The assay is described as above. The settings on record: remark: other sources report otherwise.
The target in assay [6] is HLA-A*0301 (Human). The settings on record: remark: other sources report otherwise.
The target of assay [7] is HLA-A*0301 (Human). The settings on record: remark: other sources report otherwise. The source holds these as a separate data set.
Assay [8] concerns the target HLA-A*1101 (Human). The following applies: remark: other sources report otherwise.
Assay [9] addresses HLA-A*0301 (Human). The following applies: remark: other sources report otherwise. This is another data set of the same source.
Assay [10] deals with HLA-A*3101 (human). The experiment in a line: competition with 125I probe peptide, purified HLA class I. The settings on record: remark: other sources report otherwise.
Assay [11] concerns the target HLA-A*0301 (human). The description is as above. The following applies: remark: other sources report otherwise.
Assay [12] has as its target HLA-A*6801 (Human). The following applies: remark: other sources report otherwise.
In assay [13] the target is HLA-A*3301 (Human). The settings on record: remark: other sources report otherwise.
Assay [14] concerns the target HLA-A*3101 (Human). The settings on record: remark: other sources report otherwise.
Another assay concerns the target HLA-A*2401 (human). The experiment in a line: competition with 125I probe peptide, purified HLA class I.
The target in assay [15] is HLA-A*0206 (Human). The experiment in a line: competition vs 125I probe, purified HLA. The following applies: remark: other sources report otherwise.
For the next assay, the target named is HLA-A*6802 (human). The experiment in a line: competition with 125I probe peptide, purified HLA class I. The following applies: remark: other sources report otherwise.
The target of assay [16] is HLA-A*3301 (human). The description is as above. The following applies: remark: other sources report otherwise.
Assay [17] addresses HLA-A*0203 (Human). The experiment in a line: competition vs 125I probe, purified HLA. The following applies: remark: other sources report otherwise.

Where two headings read alike, the source gives them in different places. Non-standard residues stand in square brackets, D forms with d. No end group written: not given here. Abu = CC[C@H](N)C(=O)O

For 31 molecules, binding affinity ratio to standard peptide, IC50 and binding affinity ratio (IC50 of standard peptide/IC50 of test peptide) results are on record in US20050196403A1.

In the case of VTCTYSPALNK [p53 peptide … (position 122)], the binding affinity ratio to standard peptide with HLA-A*1101 (human) [1] was 0.12.

With KMFCQLAKT [… p53.132], the results for the half-inhibitory concentration (IC50) in the assay with HLA-A*0206 (human) [2] and with HLA-A*0203 (human) [3] were 92.5 nM and 19.6 nM, respectively.

With SSCMGGMNRR, the binding affinity ratio to standard peptide with HLA-A*1101 (human) [1] was 0.086.

As for SV[Abu]MGGMNRK [1371.25 SVBMGGMNRK p53.240.V2B3K10], the half-maximal inhibitory concentration (IC50) with HLA-A*6801 (human) [4] was 17 nM; with HLA-A*1101 (human) [5] it was 75 nM.

For the molecule RVRAMAIYK [p53 peptide … (position 156)], the binding affinity ratio (IC50 of standard peptide/IC50 of test peptide) with HLA-A*0301 (Human) [6] was 1.5. Further, the binding affinity ratio to standard peptide in the assay with HLA-A*1101 (human) [1] was 0.73.

In the case of YGFRLGFLH [p53 peptide … (position 107)], in the assay with HLA-A*1101 (human) [1], the binding affinity ratio to standard peptide worked out at 0.26.

For the molecule GFLHSGTAK [p53 peptide … (position 112)], the binding affinity ratio (IC50 of standard peptide/IC50 of test peptide) with HLA-A*0301 (Human) [6] turned out to be 0.0014. The binding affinity ratio to standard peptide with HLA-A*1101 (human) [1] came out at 0.0001.

As for SSCMGGMNRR [p53 peptide … (position 240, 10 amino acids)], the binding affinity ratio (IC50 of standard peptide/IC50 of test peptide) in the assay with HLA-A*0301 (Human) [7] amounted to 0.0001; in the assay with HLA-A*1101 (Human) [8], 0.086; in the assay with HLA-A*0301 (Human) [9], 0.0001.

RTEEENLRK: in the assay with HLA-A*0301 (Human) [6], the binding affinity ratio (IC50 of standard peptide/IC50 of test peptide) was determined as 0.0015. The binding affinity ratio to standard peptide with HLA-A*1101 (human) [1] was determined as 0.091.

For the molecule SV[Abu]MGGMNK [1371.24 SVBMGGMNK p53.240.V2B3K9], the IC50 in the assay with HLA-A*3101 (human) [10] is 9000 nM; with HLA-A*0301 (human) [11], 12.5 nM; with HLA-A*6801 (human) [4], 29.6 nM; with HLA-A*1101 (human) [5] it was 17.1 nM.

Turning to TSRHKKLMFK [p53 peptide … (position 377)], the binding affinity ratio to standard peptide with HLA-A*1101 (human) [1] was 0.0052.

In the case of KGQSTSRHK [p53 peptide … (position 373)], in the assay with HLA-A*0301 (Human) [6], the binding affinity ratio (IC50 of standard peptide/IC50 of test peptide) is 0.0014. The binding affinity ratio to standard peptide in the assay with HLA-A*1101 (human) [1] was found to be 0.0002.

SSCMGGMNR: in the assay with HLA-A*1101 (human) [1], the binding affinity ratio to standard peptide stood at 1.4.

With RTEEENLRK [p53 peptide … (position 283, 9 amino acids)], the binding affinity ratio (IC50 of standard peptide/IC50 of test peptide) with HLA-A*1101 (Human) [8] worked out at 0.091; in the assay with HLA-A*6801 (Human) [12] it was 0.0001; with HLA-A*3301 (Human) [13] it was 0.0006; with HLA-A*0301 (Human) [9] it was 0.0015; with HLA-A*3101 (Human) [14], 0.0002.

As for TSSSPQPK [p53 peptide TSSSPQPK (position 312, 8 amino acids)], the binding affinity ratio (IC50 of standard peptide/IC50 of test peptide) with HLA-A*1101 (Human) [8] was determined as 0.0019.

TYQGSYGFRF [57.0096 … p53.102.F10]: in the assay with HLA-A*2401 (human), the IC50 is 30 nM. In other words, the double-digit nanomolar range.

VTCTYSPALNK [p53 peptide … (position 122, 11 amino acids)]: the binding affinity ratio (IC50 of standard peptide/IC50 of test peptide) in the assay with HLA-A*0301 (Human) [7] was determined as 0.07; in the assay with HLA-A*1101 (Human) [8] it was 0.12; in the assay with HLA-A*6801 (Human) [12] it was 0.0068; with HLA-A*0301 (Human) [9], 0.07.

RMPEAAPPVA [p53.65 … (10-mer)] had a concentration for half-maximal inhibition (IC50) with HLA-A*0206 (Human) [15] of 841 nM.

With TCTYSPALNK [p53 peptide … (position 123)], the binding affinity ratio to standard peptide with HLA-A*1101 (human) [1] turned out to be 0.012.

In the assay with HLA-A*6802 (human), FLHSGTAKSV [1329.09 … p53.113] gave an IC50 of 80000 nM.

B1: 1371.16 BVYSPALNK p53.124.B1V2 (peptide)
peptide: BVYSPALNK
modifications: here or on the partner: B at position 1 is alpha-amino butyric acid (in place of cysteine)
Turning to B1, the half-inhibitory concentration (IC50) worked out at 500 nM in the assay with HLA-A*6801 (human) [4] and 12.8 nM with HLA-A*1101 (human) [5].

For TCTYSPALNK [p53 peptide … (position 123, 10 amino acids)], the binding affinity ratio (IC50 of standard peptide/IC50 of test peptide) in the assay with HLA-A*0301 (Human) [7] turned out to be 0.0056.

In the case of TSSSPQPK [p53 peptide TSSSPQPK (position 312)], the binding affinity ratio to standard peptide with HLA-A*1101 (human) [1] amounted to 0.0019.

As for RTEEENLRKK [p53 peptide … (position 283, 10 amino acids)], the binding affinity ratio (IC50 of standard peptide/IC50 of test peptide) with HLA-A*1101 (Human) [8] was 0.008; with HLA-A*0301 (Human) [9], 3.3.

In the assay with HLA-A*3301 (human) [16], KVYQGSYGFR [1371.14 … p53.101.V2] displayed an IC50 of 10000 nM.

Regarding RVRAMAIYK [p53 peptide … (position 156, 9 amino acids)], the binding affinity ratio (IC50 of standard peptide/IC50 of test peptide) is 0.73 with HLA-A*1101 (Human) [8]; 0.003 with HLA-A*6801 (Human) [12]; 0.0063 with HLA-A*3301 (Human) [13]; 1.5 in the assay with HLA-A*0301 (Human) [9]; 3.7 with HLA-A*3101 (Human) [14].

On to LGFLHSGTAK [p53 peptide … (position 111)], for which the binding affinity ratio (IC50 of standard peptide/IC50 of test peptide) in the assay with HLA-A*0301 (Human) [6] was 0.0001. Moreover, the binding affinity ratio to standard peptide with HLA-A*1101 (human) [1] is 0.0002.

In the case of RTEEENLRKK, the binding affinity ratio (IC50 of standard peptide/IC50 of test peptide) with HLA-A*0301 (Human) [6] amounted to 3.3.

Take KMF[Abu]QLAKV [p53.132B4V9 KMFBQLAKV]: the 50% inhibitory concentration (IC50) with HLA-A*0203 (Human) [17] was found to be 9.1 nM; with HLA-A*0206 (Human) [15], 37 nM.

Consider TSRHKKLMFK [p53 peptide … (position 377, 10 amino acids)], for which the binding affinity ratio (IC50 of standard peptide/IC50 of test peptide) with HLA-A*0301 (Human) [7] is 0.05; with HLA-A*1101 (Human) [8], 0.0052; with HLA-A*0301 (Human) [9] it was 0.05.

Turning to SSCMGGMNR [p53 peptide … (position 240, 9 amino acids)], the binding affinity ratio (IC50 of standard peptide/IC50 of test peptide) in the assay with HLA-A*0301 (Human) [7] is 0.02; with HLA-A*1101 (Human) [8], 1.4; in the assay with HLA-A*0301 (Human) [9], 0.02.

Broadly, the IC50 is the concentration needed to halve the response being measured. A low value points to higher potency.
